Measured values from the supplement of paper PMC12455559.
± gives the standard deviation of the averaged measurements.

What was measured:
[1] = melting temperature (DSF); higher = more thermostable
Method: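 Candidate PET hydrolases were expressed in E. coli C41(DE3) in 2 mL autoinduction cultures in 24-deep-well plates, Ni-bead purified and released by SUMO protease cleavage on an OT-2 robot. Yield per well was measured by BCA; values below 25 ug (0.1 mg/mL) are below the detection threshold. Melting temperature was measured by differential scanning fluorimetry with Sypro Orange, ramping from 25 C at 0.3 C/step.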

[2] = PET hydrolysis, aromatic products released after 48 h (umol product/mg enzyme); higher = more PET depolymerization activity
Method: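 HTP-purified, SUMO-cleaved, tagless PET hydrolase candidates (5 ug, 1.43 mg/g PET) were incubated 48 h without shaking with 3.5 mg amorphous PET film (aFilm) or crystalline PET powder (cryPow) in 0.5 mL buffer: NaCitrate pH 4.5/5.5, NaPhosphate pH 6.5/7.5, glycine pH 8.5. Incubation was at 40 or 60 C. Aromatic products (TPA, MHET, BHET) in the supernatant were quantified by UV absorbance at 260/280 nm relative to buffer blanks and expressed per mg enzyme. LCC-ICCG was the positive control on every plate.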

[3] = purified protein yield per well (BCA); higher = higher soluble expression
How it was run: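 Purified protein yield per well is reported, as measured by the Pierce Rapid Gold BCA kit. The enzymes came from E. coli C41(DE3) autoinduction cultures of 2 mL with 100 µg/mL kanamycin, held at 37 °C for 2 h and 18 °C for 40 h, then lysed and purified on Ni-charged magnetic beads with SUMO protease release. The detection threshold is 25 ug (0.1 mg/mL), and lower values are under it.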

[4] = substrate: cryPow, 40 °C, pH 4.5
[5] = substrate: cryPow, 40 °C, pH 5.5
[6] = substrate: cryPow, 40 °C, pH 6.5
[7] = substrate: cryPow, 40 °C, pH 7.5
[8] = substrate: cryPow, 40 °C, pH 8.5
[9] = substrate: cryPow, 60 °C, pH 4.5
[10] = substrate: cryPow, 60 °C, pH 5.5
[11] = substrate: cryPow, 60 °C, pH 6.5
[12] = substrate: cryPow, 60 °C, pH 7.5

Sequence	melting temperature [1] [C]	PET hydrolysis [2, 4]	PET hydrolysis [2, 5]	PET hydrolysis [2, 6]	PET hydrolysis [2, 7]	purified protein yield per well [3] [µg]	PET hydrolysis [2, 8]	other results
AAAAGRADQRGPDPSVAGVAATYGPFATAQLTVPAGNGFNGGYIYYPTDTSLGTWGAVAIVPGYSALFANEEAWMGPRLASFGFVVIGIETTTRTDGADARATQLLAALDYLTQRSPVRDRVDPGRLAVMGHSAGGAGALLAAMRRPSLRAVVGLAPGSPTGLSSLSTDVVPTLFVGGQQDPTVTPSYLDNLYATLPASTQSAYVQLGGADHLFFTRANDVEIRRLVPWLKLFLDGDTRYTQFMCPTTPDTTGVSRYSAKCPLVPPGGPTGSASPSSPGASNSPSSPPASSSAPGAACVATYRTVGQWSGGFQGEVTVTAGGRPVNGWTVRWALGSGQAVSQLWNGALSTSGSAVSVRNVSYNGALAASASTTFGFLGSGTPSTPALSCTSP [ESM041]	47.8	< 3	< 3	< 3	< 3	106	–	–
ADNPYERGPAPTTASIEAVRGPYAVSEYRVSSLAATGFGGGTIHYPTTTADGTFGAIAVSPGYTGTESTIAWLGPRLASQGFVVFTIETLTLFDQPDSRGRQLLAALDHLTRVSPLRGRVDSSRLGVMGHSMGGGGSLEAAKSRPSLQAAVPLTPWNLDKTWPELRTPTLVVGADGDSIAPVRSHAEPFYESLPSSLDRAYLELNGASHFAPNSPDTTIAKYSIAWLKRFIDNDTRYEQFLCPLPRPSLTIEEYRGNCPHTS [TEP138]	36.1	–	–	–	–	28	–	–
ADSPYQRGPDPTPASVAATRGPFATTQATVPAGNGFNGGYVYYPTDTSQGTWGAVAIVPGYSALFANEEAWMGPWLASFGFVVIGIETNSRTDGADARATQLLAALDYLTRTSPIRDRVDANRLGVMGHSAGGAGTLLAALRRPTLKTAVGLAPGTPGNNLNMSTTQVPTMLLSGQNDGTVTPTYVQGIYNTLPAGVEHAWAELAGNDHLSFTRSNPTEMRLLIPWLKTFLDNDTRYTQFLCPLANSTGVSRYNATCPLVPPDGPTSPPTTTPPTSAPPTTSAPTTPPPSGATCTATYRTVNSWSGGFQGEVTVTAGAAALNGWTVRWESNNGQSISQVWNGTLSTSGSTATVRNVSYNGSLAAGATTTFGFLSSGTPAATSPTCASP [ESM051]	54.4	–	–	–	–	27.3	–	–
FSATGPSAPCSNCTRGPAPTVTALKASTGPFTTAKFSVSGFLKGYGDSTVYYPTNTTGKMGAIAVIPGYLSYESSIDWWGPRLASHGFVVMTMNTKTIYDQPDSRASQLSEALDYLIAQSKSSSSPLYNKIDSTRLGAIGWSMGGGGSLKLATQRSINAIIPQAPWYLGSSAFSGIKTPTLILACSADTVAPVAQHASPFYNQIPNSTPKAFLEIYGGSHFCANSGYPNQDMLGMYGIAWMKRFIDFDSRYSQFLCGPNHESDYAISDYRENCPY [ESM055]	55.3	–	–	–	–	28.9	–	–
MSNPYQRGPNPTRSALTADGPFSVATYTVSRLSVSGFGGGVIYYPTGTSLTFGGIAMSPGYTADASSLAWLGRRLASHGFVVLVINTNSRFDGPDSRASQLSAALNYLRTSSPSAVRARLDANRLAVAGHSMGGGGTLRIAEQNPSLKAAVPLTPWHTDKTFNTSVPVLIVGAEADTVAPVSQHAIPFYQNLPSTTPKVYVELCNASHIAPNSNNAAISVYTISWMKLWVDNDTRYRQFLCNVNDPALCDFRTNNRHCQLEHHHHHH [LCC-ICCG]	93.6	20.1 ± 5.3	51.5 ± 15	94.5 ± 18	130 ± 20	–	113 ± 14	PET hydrolysis ([2]; substrate: aFilm, 40 °C, pH 4.5): 8.5 ± 1.9; PET hydrolysis ([2]; substrate: aFilm, 40 °C, pH 5.5): 17.4 ± 9.2; PET hydrolysis ([2]; substrate: aFilm, 40 °C, pH 6.5): 38.1 ± 12; PET hydrolysis ([2]; substrate: aFilm, 40 °C, pH 7.5): 58.9 ± 20; PET hydrolysis ([2]; substrate: aFilm, 40 °C, pH 8.5): 73 ± 30; PET hydrolysis ([2]; substrate: aFilm, 60 °C, pH 4.5): 60.8 ± 8; PET hydrolysis ([2]; substrate: aFilm, 60 °C, pH 5.5): 448; PET hydrolysis ([2]; substrate: aFilm, 60 °C, pH 6.5): 820 ± 23; PET hydrolysis ([2]; substrate: aFilm, 60 °C, pH 7.5): 965 ± 100; PET hydrolysis ([2]; substrate: aFilm, 60 °C, pH 8.5): 584; PET hydrolysis [2, 9]: 56.2 ± 7.2; PET hydrolysis [2, 10]: 121 ± 18; PET hydrolysis [2, 11]: 208 ± 33; PET hydrolysis [2, 12]: 236 ± 3
QAPTRESLGAQGPYQVAYYSNFPAVQEFTAGTIYFPANKAQTFGAVAISPGFAERQENMSWWGRHLASHGFAVLTLDTNELRDDPAIRAEALMAALRVLSGESEREGSPLRGKIDTNRMAIMGHSMGGGGTLLAANTHSSELKAAIPFTPWQPDGDFSDVTVPTLIIAGEIDRVAPVNDHAWPHYQSLSASNPRLYLEIRGGNHFIANTAT [TEP038]	–	< 3	< 3	< 3	< 3	52.1	–	–
QSNPYERGPAPTESSIEATRGSFSVSDKNVSSFSASGFGGGTIYYPTDTSQGTFGGVAISPGFTAGESSIAWLGPRIASQGFVVITIDTNSRYDQPNSRADQLQAALDHIVADSTVGSRIDPNRLAVMGHSMGGGGSLKAAEDNADLQAAVPLQPWHTQKNWSDVEVPTLIIGAENDSVASVTTHSKPFYTSLPDDLDKAYLELDGASHFVSNTPDTTTAKYSISWLKRFVDDDTRYEQFLCPAPDDRTISEYRDTCPHSGGGGTTPTTTPTTLPPDDDCAWWQWWC [DP057]	–	–	< 3	10	29	34	31	–
QVAIFQESFSSGLGGFTATGTVGTSTGAARMEGCYGCTDGAITSGAISTQGFTGLSLSFDRVTSGLDSGEAGIAEYSTNGSTWTAVESTRVTTNGRVTFSLPDTAAGQAALRLRFRIDASLSSETYTVDNVQLTGIPGDTGTNPYAKGPNPTTSMLESSTGPFTYATTNVSEFSASGYGGGTIYHPTNVAGPFAAIAISPGYTGTKSTMSWWGERLASHGFVVITIDTNSIYDQPYERAPQLMAALRQLVTFSNTSSHPIYRKVDPNRLGVMGHSMGGGGTLIAARDNPTLKAAIPLAPWNTSTDFSSVRVPTLVVACESDTIAPVSQHASPFYNSIPASATKKAFMEMNNGDHFCVMTGNDYTRIMGKYGVAWMKRFMDNDTRYSPFLCGAPHQADLSNIQISEYRENCPY [DP048]	–	–	< 3	< 3	< 3	56	< 3	PET hydrolysis [2, 10]: < 3; PET hydrolysis [2, 11]: < 3; PET hydrolysis [2, 12]: < 3; PET hydrolysis ([2]; substrate: cryPow, 60 °C, pH 8.5): < 3
SNPTPTPTPTPTPTPTPGNNPFQRGPNPTLSFIEANSGPYSVRTSRVSSYTSGFGGGTIHYPTGQSGTMGAIVVIPGFVSAESSIEWWGPKLASHGFVVMTIDTNSGFDQPPSRARQINAALDYLVAQNRSSRSPVRGMIDTNRLGVVGWSMGGGGTLRVASEGRIKAAIPLAPWDTTSFRNVKAPTLIFACESDVIAPVGQHASPFYNELPSNISKAFVELNGGSHYCGNGGNSYNDVLSRFGVSWMKRFLDNDTRYSQFLCGPNHTSDRDISEYRGNCNY [ESM042]	–	< 3	< 3	< 3	< 3	73.3	–	PET hydrolysis [2, 9]: < 3; PET hydrolysis [2, 10]: < 3; PET hydrolysis [2, 11]: < 3; PET hydrolysis [2, 12]: < 3
TADSSYQRGPAPTEASVRADRGPFQVARVNVPGAGFGSGTIYYPTDTSQGTFGGVAVSPGFLSPEILIAWLGPRLASHGFVVITFTTNTPTDQPDSRGSQLLAALDYLTTQSPTAVRQRLDNTRLSVIGHSMGGGGALRAANDRPDLQAAVPLGPYHTTKDWSGVRVPTMIIGGQYDSIAPNDQHSERFYNSLDSAPEKAYLRVTGTTHITVGTGTPGVGKYVLSWLKRFVDDDTRYDQFLCPTPSGPDVVEYHSTCPHA [TEP009]	49.3	–	–	–	–	28.4	–	–
TAGAEPSGGAPAAGGSGCGDVADPAAQGPLHVQTYSSGLRDGPDYGSQTMHYPTDGAPPYPALVIVPGFMSLESSIADHGPHFASHGIVTLTIGTNSTMDQPPARSEALLDALETIRAEHTRAGGPLEGKLDLSRLGVMGWSMGGGGTLITVDDHPELKAAITLCAWNPGQTYRNNQVPTLLFAGTADTLAGG [TEP195]	–	< 3	< 3	< 3	< 3	30.1	–	–
TNPAPPSTPNPPAEESPYVRGPNPTVSFLEARSGPLSVRTSRVSSLVSGFGGGTIHYPTGTTGTMGAVVVIPGFVSAESSIDWWGPKLASHGFVVLTIDTNTGFDQPPSRARQINNALDYLVSQNSSRTSPVRGMIDTNRLGVIGWSMGGGGTLRVASEGRIKAAIPLAPWDTVSSYAANAQAPTLIFACQADIVAPVAAHASPFYNRLPNSIDKAYVEISGGSHYCANGGGLNNNVLSRFGVSWMKRFLDEDTRYSQFLCGPNHRSDRDIADYRGNCP [ESM172]	49	–	–	–	–	26	–	–
VPVVPAQQENPYQRGPDPTPESVEAPRGSFAIEKATIARGSVQGFGGGTIYYPTDTAEGTFGAVAISPGFTESQSAISWYGERLATQGFVVFTIDTNGGLDQPDSRADQLLAALDFLTGSSEVKDRIDASRLGVLGHSMGGGGSLSAAKKRPALQAAVPLAPWHTNSNWSDVTVPTLIVGAENDAVAPVGMHAEPFYAGLTKAPEKAYLELKGADHFVTNSPNTVIAKSTLSWLKRFIDDDTRYDQFLCPPPKPDNDISEYRDTCPN [DP051]	–	–	< 3	< 3	< 3	< 25	< 3	–
